Molecular target: mG-CSF (recombinant murine G-CSF, R&D Systems Cat #414-CS) (mouse) (UniProt P09920)
Assay: cell-based or functional assay

Sequence of UniProt P09920 (P09920 31-208 limits assumed): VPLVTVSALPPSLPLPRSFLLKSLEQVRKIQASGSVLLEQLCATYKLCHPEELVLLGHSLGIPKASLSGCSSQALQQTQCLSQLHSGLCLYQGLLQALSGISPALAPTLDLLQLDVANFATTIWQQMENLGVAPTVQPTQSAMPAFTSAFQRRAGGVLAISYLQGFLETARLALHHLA

Row | inhibition of mG-CSF proliferation of hG-CSFR BaF3 cells (MTS reduction, 48 hours), IC50 | Substance
1 | 22 pM | soluble hG-CSFR-Fc protein (from UniProt Q99062 25-627) (Fc fusion)
2 | 10 pM | Anti-G-CSF (MAB414) (antibody)

Reference: patent publication US20110110934A1
